How the values were obtained:
[1] = target: complex of vitamin D binding protein with 25-hydroxyvitamin D3 (DBP:25(OH)D3) (human) (UniProt P02774); experiment: MST, NT-647-labelled DBP (50 nM) with VD3 (50 nM), megalin fragment titrated
[2] = target: vitamin D binding protein (DBP) alone, without added vitamin D metabolite (human) (UniProt P02774); experiment: MST, NT-647-labelled DBP (50 nM), megalin fragment titrated, absence of 25-OH vitamin D3; microscale thermophoresis; NT-647-labelled DBP, purified soluble M1 titrated 0.488-1000 nmol/L; absence of 25-OH vitamin D3
vitamin D binding protein (DBP) alone, without added vitamin D metabolite (human), sequence (P02774 17-474 limits assumed): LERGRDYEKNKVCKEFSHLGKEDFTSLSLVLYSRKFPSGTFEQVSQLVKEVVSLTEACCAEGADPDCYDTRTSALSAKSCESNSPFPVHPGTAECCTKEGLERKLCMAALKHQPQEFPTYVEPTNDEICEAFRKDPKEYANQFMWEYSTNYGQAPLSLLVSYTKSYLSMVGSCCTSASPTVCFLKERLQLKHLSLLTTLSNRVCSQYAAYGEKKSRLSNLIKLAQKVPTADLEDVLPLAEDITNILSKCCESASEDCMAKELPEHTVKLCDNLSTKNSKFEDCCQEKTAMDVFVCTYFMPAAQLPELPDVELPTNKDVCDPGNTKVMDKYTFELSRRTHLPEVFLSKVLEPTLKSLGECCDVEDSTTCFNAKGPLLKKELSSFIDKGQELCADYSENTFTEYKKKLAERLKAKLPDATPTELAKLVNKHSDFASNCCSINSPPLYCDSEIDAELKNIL

complex of vitamin D binding protein with 25-hydroxyvitamin D3 (DBP:25(OH)D3) (human), sequence (P02774 17-474 limits assumed, one chain of several): as the sequence (P02774 17-474 limits assumed) above

Kd [1]: 0.0456 µM
Kd [2]: 0.442 µM
Substance: soluble recombinant megalin M1 fragment (amino acids 26 to 386 of human LRP2/megalin, C-terminal 6x His tag) (from UniProt P98164 26-386) (receptor)

Source: patent US20240319212A1, “METHOD OF MEASURING THE ENDOCYTIC VITAMIN D STATUS” (Immundiagnostik AG, priority 2018, published 2024)
